Experimental findings from publication PMC7005798 (2020) are described below.

This experiment addresses C3b (human, UniProt P01024 23-667; P01024 749-1663). Description: SPR. For orientation: Surface plasmon resonance follows binding to a sensor surface in real time, without labels.

C3b, sequence (P01024 23-667, chain 1 of 2): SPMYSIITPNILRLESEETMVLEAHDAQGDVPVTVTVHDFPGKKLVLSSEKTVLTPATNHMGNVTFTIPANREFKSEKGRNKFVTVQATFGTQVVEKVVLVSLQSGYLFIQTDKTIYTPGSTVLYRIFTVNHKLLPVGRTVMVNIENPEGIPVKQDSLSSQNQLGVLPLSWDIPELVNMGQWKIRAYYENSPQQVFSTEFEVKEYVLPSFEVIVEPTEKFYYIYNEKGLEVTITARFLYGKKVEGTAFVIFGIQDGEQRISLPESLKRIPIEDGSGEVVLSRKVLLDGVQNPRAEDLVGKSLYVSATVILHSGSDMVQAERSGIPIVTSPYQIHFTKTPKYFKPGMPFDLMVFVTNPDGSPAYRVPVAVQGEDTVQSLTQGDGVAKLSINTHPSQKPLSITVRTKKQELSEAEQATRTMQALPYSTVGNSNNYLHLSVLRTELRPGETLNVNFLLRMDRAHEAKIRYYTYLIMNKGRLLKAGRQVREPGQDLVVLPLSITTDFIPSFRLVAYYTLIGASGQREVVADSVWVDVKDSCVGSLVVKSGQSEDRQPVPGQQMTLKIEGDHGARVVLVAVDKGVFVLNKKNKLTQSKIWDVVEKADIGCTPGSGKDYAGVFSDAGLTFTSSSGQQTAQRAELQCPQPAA
C3b, sequence (P01024 749-1663, chain 2 of 2): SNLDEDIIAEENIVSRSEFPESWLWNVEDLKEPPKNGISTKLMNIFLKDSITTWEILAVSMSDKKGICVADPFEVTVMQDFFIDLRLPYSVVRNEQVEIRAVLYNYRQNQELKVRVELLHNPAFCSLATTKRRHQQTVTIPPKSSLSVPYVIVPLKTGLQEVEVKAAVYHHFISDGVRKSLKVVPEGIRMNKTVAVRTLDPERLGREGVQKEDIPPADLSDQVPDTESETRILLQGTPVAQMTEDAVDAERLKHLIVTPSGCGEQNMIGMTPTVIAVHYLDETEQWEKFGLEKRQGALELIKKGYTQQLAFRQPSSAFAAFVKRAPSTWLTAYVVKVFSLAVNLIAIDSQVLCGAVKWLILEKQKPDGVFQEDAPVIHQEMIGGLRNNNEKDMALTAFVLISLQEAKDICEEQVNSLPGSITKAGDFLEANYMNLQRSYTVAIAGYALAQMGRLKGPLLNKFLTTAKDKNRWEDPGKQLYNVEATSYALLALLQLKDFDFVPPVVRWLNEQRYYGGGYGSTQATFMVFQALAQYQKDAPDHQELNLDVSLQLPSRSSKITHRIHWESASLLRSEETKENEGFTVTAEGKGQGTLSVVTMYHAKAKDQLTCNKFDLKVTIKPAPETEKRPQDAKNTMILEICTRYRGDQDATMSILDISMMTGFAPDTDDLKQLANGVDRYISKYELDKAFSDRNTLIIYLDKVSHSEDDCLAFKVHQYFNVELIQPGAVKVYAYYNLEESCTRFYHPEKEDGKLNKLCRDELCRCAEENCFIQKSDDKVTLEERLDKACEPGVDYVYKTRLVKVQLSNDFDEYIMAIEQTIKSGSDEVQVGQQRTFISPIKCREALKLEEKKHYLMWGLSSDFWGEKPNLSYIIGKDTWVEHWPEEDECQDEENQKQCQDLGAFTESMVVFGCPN

B1: Recombinant Factor H-Related Protein 4 (FHR-4), FHR-4B variant (natural protein)
chain: EVKPCDFPEIQHGGLYYKSLRRLYFPAAAGQSYSYYCDQNFVTPSGSYWDYIHCTQDGWSPTVPCLRTCSKSDIEIENGFISESSSIYILNKEIQYKCKPGYATADGNSSGSITCLQNGWSAQPICIKFCDMPVFENSRAKSNGMRFKLHDTLDYECYDGYEISYGNTTGSIVCGEDGWSHFPTCYNSSEKCGPPPPISNGDTTSFLLKVYVPQSRVEYQCQSYYELQGSNYVTCSNGEWSEPPRCIHPCIITEENMNKNNIQLKGKSDIKYYAKTGDTIEFMCKLGYNANTSVLSFQAVCREGIVEYPRCE
Regarding B1, binding was characterised by a dissociation constant (Kd) of 1100 nM. This lies in the single-digit micromolar range.
